In publication PMC11359516, “Methionine Synthase 2 Represses Stem Cell Maintenance of Arabidopsis thaliana in Response to Salt Stress” (Plants, 2024):

T1: GST:AtMS2 (Arabidopsis METHIONINE SYNTHASE 2 fused with GST) (Arabidopsis thaliana, UniProt Q9SRV5 1-765)
T1 construct: METHIONINE SYNTHASE 2 (AtMS2), Arabidopsis thaliana, At3g03780; AtMS2 cDNA cloned into pGEX-4T-1; also called AtMS2 protein fused with GST; AtMS2 in fusion with GST; source: E. coli BL21, purified (glutathione resin)
T1 sequence (looked up): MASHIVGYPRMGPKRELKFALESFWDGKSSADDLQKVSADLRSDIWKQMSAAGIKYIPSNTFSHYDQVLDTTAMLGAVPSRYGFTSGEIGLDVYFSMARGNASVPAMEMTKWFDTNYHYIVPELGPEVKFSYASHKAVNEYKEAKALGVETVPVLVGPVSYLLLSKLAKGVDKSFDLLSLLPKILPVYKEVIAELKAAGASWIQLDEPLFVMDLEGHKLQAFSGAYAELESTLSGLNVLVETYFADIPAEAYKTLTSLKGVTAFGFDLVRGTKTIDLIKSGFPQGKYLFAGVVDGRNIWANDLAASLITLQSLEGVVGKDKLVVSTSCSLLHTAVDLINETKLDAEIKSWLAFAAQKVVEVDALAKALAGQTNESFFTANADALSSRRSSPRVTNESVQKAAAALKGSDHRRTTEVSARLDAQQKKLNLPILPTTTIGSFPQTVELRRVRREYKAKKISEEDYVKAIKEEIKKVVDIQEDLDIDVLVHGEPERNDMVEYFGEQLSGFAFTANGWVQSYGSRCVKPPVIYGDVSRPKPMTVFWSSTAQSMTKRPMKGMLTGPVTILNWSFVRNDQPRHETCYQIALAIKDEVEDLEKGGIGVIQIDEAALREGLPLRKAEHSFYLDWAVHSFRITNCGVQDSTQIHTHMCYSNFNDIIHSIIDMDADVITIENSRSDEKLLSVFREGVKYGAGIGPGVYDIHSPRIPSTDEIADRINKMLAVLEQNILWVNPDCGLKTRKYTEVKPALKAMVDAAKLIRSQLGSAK

T2: MBP:AtMS2 (Arabidopsis thaliana, UniProt Q9SRV5 1-765)
T2 construct: METHIONINE SYNTHASE 2 (AtMS2), Arabidopsis thaliana, At3g03780; cloned into the pMBP-c vector; source: E. coli BL21, purified (amylose resin)
T2 sequence (looked up): T1 sequence (looked up)

B1: MBP (maltose-binding protein):WUS fusion protein (natural protein, Arabidopsis thaliana, UniProt Q9SB92 1-292, looked up)
chain: MEPPQHQHHHHQADQESGNNNNNKSGSGGYTCRQTSTRWTPTTEQIKILKELYYNNAIRSPTADQIQKITARLRQFGKIEGKNVFYWFQNHKARERQKKRFNGTNMTTPSSSPNSVMMAANDHYHPLLHHHHGVPMQRPANSVNVKLNQDHHLYHHNKPYPSFNNGNLNHASSGTECGVVNASNGYMSSHVYGSMEQDCSMNYNNVGGGWANMDHHYSSAPYNFFDRAKPLFGLEGHQEEEECGGDAYLEHRRTLPLFPMHGEDHINGGSGAIWKYGQSEVRPCASLELRLN
notes: WUSCHEL (WUS), Arabidopsis thaliana, At2g17950; cloned into the pMBP-c vector; also called MBP:WUS; MBP-tagged WUS; source: E. coli BL21, purified (amylose resin)
B2: MBP:WOX5 (natural protein, Arabidopsis thaliana, UniProt Q8H1D2 1-182, looked up)
chain: MSFSVKGRSLRGNNNGGTGTKCGRWNPTVEQLKILTDLFRAGLRTPTTDQIQKISTELSFYGKIESKNVFYWFQNHKARERQKRRKISIDFDHHHHQPSTRDVFEISEEDCQEEEKVIETLQLFPVNSFEDSNSKVDKMRARGNNQYREYIRETTTTSFSPYSSCGAEMEHPPPLDLRLSFL
notes: WUSCHEL-RELATED HOMEOBOX 5 (WOX5), Arabidopsis thaliana, At3g11260; cloned into the pMBP-c vector; also called MBP-tagged WOX5; source: E. coli BL21, purified (amylose resin)
B3: MBP:WOX4 (natural protein, Arabidopsis thaliana, UniProt Q6X7J9 1-251, looked up)
chain: MKVHEFSNGFSSSWDQHDSTSSLSLSCKRLRPLAPKLSGSPPSPPSSSSGVTSATFDLKNFIRPDQTGPTKFEHKRDPPHQLETHPGGTRWNPTQEQIGILEMLYKGGMRTPNAQQIEHITLQLGKYGKIEGKNVFYWFQNHKARERQKQKRNNLISLSCQSSFTTTGVFNPSVTMKTRTSSSLDIMREPMVEKEELVEENEYKRTCRSWGFENLEIENRRNKNSSTMATTFNKIIDNVTLELFPLHPEGR
notes: WUSCHEL-RELATED HOMEOBOX 4 (WOX4), Arabidopsis thaliana, At1g46480; cloned into the pMBP-c vector; also called MBP-tagged WOX4; source: E. coli BL21, purified (amylose resin)

Columns and labels:
[1] = molecular target: T1, GST:AtMS2 (Arabidopsis METHIONINE …); assay: pull-down; MBP fusions or MBP immobilised on amylose resin, incubated with GST:AtMS2; 50 mM Tris-HCl pH 7.4, 200 mM NaCl, 5.0% glycerol, 1.5% Triton X-100, 10 mM NaF, 1.0 mM Na3VO4, 1.0 mM PMSF; 1.5 h at 4 °C; immunoblot with anti-GST antibody; settings: both partners purified
MBP:AtMS2 = molecular target: T2, MBP:AtMS2; assay: native gel or EMSA; super shift of a Texas red-labeled WUS or WOX5 promoter probe; 20 uL binding buffer (10 mM Hepes-KOH pH 7.8, 20 mM KCl, 10 mM MgCl2, 1 mM DTT, 0.1% BSA, 5% glycerol, 0.5% Triton-X100, 20 ng/uL salmon sperm DNA), 22 °C, 30 min; 6% polyacrylamide gel; settings: both partners purified

Binder | binding result [1] | binding result (MBP:AtMS2)
B1 | binds | binds
B2 | binds | binds
B3 | binds | 
